One experiment addresses T1, GST-pro-dom-NGF (Homo sapiens, UniProt P01138, A35V).
T1 construct: previously described GST-NGF-pro-domain fusion protein (Nykjaer et al., Nature 2004)
T1 sequence (P01138 19-121 A35V): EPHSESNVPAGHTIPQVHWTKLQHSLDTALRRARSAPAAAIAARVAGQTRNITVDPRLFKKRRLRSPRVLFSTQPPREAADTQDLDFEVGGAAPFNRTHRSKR
The experiment is described as follows: SPR binding of GST-pro-dom-NGF to immobilized sortilin site-directed mutants. The procedure:
Site-directed mutagenesis was performed for all important residues within the peptide sequence as identified by the substitution analysis in the SPOT method, using the pCepPU expression vector for sortilin as template. The thereby generated mutant constructs were used together with HEK293 cells to produce single residue mutants of the his-tagged sortilin luminal domain, to obtain the proteins R163A, F165A, R166A, F170A, K172A, and F174A numbered according to pro-Sortilin as specified in the sequence overview. As a control protein, the mutant R160A located N-terminally to the recognition sequence, was produced in order to have a protein with unaltered affinity for the NGF-prodomain.
After purification by standard Ni^2+-NTA chromatography, each sortilin mutant was immobilized to a similar surface density on Biacore CM5 chips. Binding was tested using concentration series of the previously described GST-NGF-pro-domain fusion protein (Nykjaer et al., Nature 2004), which is able to render a higher response using the SPR system at low concentration. Thus concentration series of 10, 20, 30, 40, and 50 nM GST-prodomain of NGF was applied to each chip surface, and data was fitted to a 1:1 binding model using the standard BIAevaluation software.
This model is further supported by the previous data in the substitution analysis, where a stronger effect upon mutation was observed when using peptides containing only one of the binding motives, as compared to mutants spanning both motives. Accordingly, it was decided to “remove” an entire motif before substitution within the second motif and to be able to observe how that would influence binding of the ligand. A sortilin variant was produced containing quadruple substitutions (R163A, F165A, R166A, and […] F170A) in a similar procedure using HEK293 cells as applied for single residue mutants.
To determine ligand binding capacity, quatro protein was coupled in parallel to the wild-type sortilin on a new Biacore chip, and binding of GST-pro-NGF was measured in a manner similar to the analysis of single residue mutants (FIG. 21).

For another experiment, the target named is T2, pro-dom-BDNF (Homo sapiens, UniProt P23560).
T2 construct: pro-dom-BDNF (residues Ala^1-Arg^110); made in house; host or cells: E. coli BL21/DE3
T2 sequence (P23560 19-128 limits assumed): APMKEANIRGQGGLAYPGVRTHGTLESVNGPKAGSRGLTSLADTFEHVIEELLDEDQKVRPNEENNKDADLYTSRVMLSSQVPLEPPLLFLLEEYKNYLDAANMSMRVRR
As to the kind of experiment: SPOT analysis of pro-dom-BDNF binding to cellulose-bound sortilin peptides. The conditions noted are these: HRP-S-protein detection where stated. The text has this: (§1) Peptide libraries were generated for all members of the Vps10p-domain receptor gene family or specific peptide variations in terms of substitution or length of identified Sortilin binding peptides. A total of 2181 peptides was used for representation of the Sortilin gene family, corresponding to 273 peptides for Sortilin (accession code: CAA66904), 734 peptides for SorLA (accession code: NP_003096), 389 peptides for SorCS1 (accession code: NP_001013049), 382 peptides for sorCS2 (accession code: Q96PQ0), and 403 peptides for SorCS3 (accession code: CAI64579), with a 13 amino acid overlap between 16-mers.
(§2) A cellulose support is prepared as a N-modified cellulose-amino-hydroxylpropyl ether membrane, and all rounds of synthesis starts with SPOT definition by 9-fluorenyl-methoxycarbonyl-β-alanine-pentafluoophenyl ester that creates an alanine linker between peptide and membrane. Then followed an automated linear synthesis of stepwise addition of the different amino acids protected at their amino terminal by 9-fluorenyl-methoxycarbonyl and appropriate side chain protection for the growing peptide chain. The pattern of deprotection, activation, and coupling continued until 16-mer peptides were produced, resulting in an equally distributed array of covalently anchored peptides to the cellulose support at their C-terminal and an N-terminal free end.
(§3) The membrane-bound libraries were incubated with a combined S-peptide and poly-histidine-tagged pro-domains (10 ug/mL) in blocking buffer over night at 4 C, followed by a second incubation with 1 ug/mL of HRP-conjugated S-protein from Novagen (cat. no. 69047-3) also in blocking buffer but for 3 h at room temperature. Subsequently, the membrane was washed three times for 10 min with TBS before quantitative characterization of bound ligand was carried out using the UptiLight chemoluminescence substrate from Uptima (cat. no. UP99619A) and the Lumilmager instrument from Roche Diagnostics, providing the SPOT signal intensities in Boehringer Light Units (BLUs). […]

For the next experiment, the target named is T3, pro-dom-NGF (Homo sapiens, UniProt P01138, A35V).
T3 construct: pro-dom-NGF (residues Glu^1-Arg^102); made in house; host or cells: E. coli BL21/DE3
T3 sequence (P01138 19-121 A35V): T1 sequence (P01138 19-121 A35V)
As to the kind of experiment: SPOT analysis of pro-dom-NGF binding to cellulose-bound sortilin peptides. The conditions noted are these: HRP-S-protein detection where stated.
Source text: as §1, §2, §3

Experiment [1] deals with T4, proNGF binding to immobilized Sortilin (Homo sapiens, UniProt Q99523).
T4 construct: 51 fmol/mm^2 purified Sortilin extracellular domain; made in house; host or cells: Sortilin: stably transfected CHO cells; proNGF: E. coli
T4 sequence (Q99523 78-755 limits assumed): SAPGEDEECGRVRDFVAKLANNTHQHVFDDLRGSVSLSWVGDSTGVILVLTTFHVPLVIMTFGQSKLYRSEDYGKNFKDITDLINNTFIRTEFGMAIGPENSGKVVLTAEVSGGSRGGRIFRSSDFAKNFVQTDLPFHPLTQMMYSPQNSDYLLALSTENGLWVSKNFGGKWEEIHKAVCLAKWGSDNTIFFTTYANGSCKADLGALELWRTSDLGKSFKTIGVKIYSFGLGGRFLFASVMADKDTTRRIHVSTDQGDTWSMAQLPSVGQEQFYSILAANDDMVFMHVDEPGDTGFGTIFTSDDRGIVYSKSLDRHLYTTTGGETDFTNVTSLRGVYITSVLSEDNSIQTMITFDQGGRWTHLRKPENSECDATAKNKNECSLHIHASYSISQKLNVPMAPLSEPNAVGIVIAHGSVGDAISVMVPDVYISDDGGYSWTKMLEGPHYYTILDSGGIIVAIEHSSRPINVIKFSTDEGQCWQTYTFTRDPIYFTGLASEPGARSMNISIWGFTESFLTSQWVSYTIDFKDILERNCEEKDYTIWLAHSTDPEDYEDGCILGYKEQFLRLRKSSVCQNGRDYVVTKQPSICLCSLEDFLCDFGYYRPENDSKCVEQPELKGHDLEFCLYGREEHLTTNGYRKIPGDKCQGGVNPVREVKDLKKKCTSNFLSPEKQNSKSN
The experiment is described as follows: Inhibition of proNGF binding to immobilized Sortilin (Biacore). The conditions noted are these: then coinjection, 51 fmol/mm^2 Sortilin (FIG. 6).

Setting [2] is: GST-pro-dom-NGF at 10-50 nM, 1:1 binding model.

The values that follow come from patent US9234036B2, “Modulation of activity of proneurotrophins” (H. Lundbeck A/S, priority 2006, dated 2016).

“Also recorded” adds a separate entry of the source. Where no end group is shown, it is not given here.

“F165A: single residue mutant of his-tagged sortilin luminal domain; SEQ ID NO 52 (RGGRIARSSDFAKNF; not fully specified)”: in the experiment with GST-pro-dom-NGF (setting [2]), the Kd amounted to 3.86 nM, the ka is 1.10 × 10^5 and the kd is 4.22 × 10^−4.
On the same counts, the results for “F170A: single residue mutant of his-tagged sortilin luminal domain; SEQ ID NO 54 (RGGRIFRSSDAAKNF; not fully specified)” are 5.59 nM, 1.30 × 10^5 and 5.91 × 10^−4.
As for “F174A: single residue mutant of his-tagged sortilin luminal domain; SEQ ID NO 56 (RGGRIFRSSDFAKNA; not fully specified)”, in the experiment with GST-pro-dom-NGF (setting [2]), the affinity, expressed as Kd, was 4.27 nM; the ka is recorded as 2.35 × 10^5; the kd is given as 1.03 × 10^−3.
In the case of FAKNFVQTD (listed as Homo Sapiens), the “pro-dom-BDNF binding in SPOT analysis” value with pro-dom-BDNF is “efficient binding”. Further, the “pro-dom-NGF binding in SPOT analysis” value with pro-dom-NGF is listed as “efficient binding”.
As for “K172A: single residue mutant of his-tagged sortilin luminal domain; SEQ ID NO 55 (RGGRIFRSSDFAANF; not fully specified)”, in the experiment with GST-pro-dom-NGF (setting [2]), the Kd was found to be 3.91 nM, the ka is reported as 1.01 × 10^5 and the kd is listed as 3.46 × 10^−4.
In the case of “R160A: single residue mutant of his-tagged sortilin luminal domain, control; SEQ ID NO 50 (AGGRIFRSSDFAKNF; not fully specified)”, in the experiment with GST-pro-dom-NGF (setting [2]), the Kd was determined as 1.89 nM, the ka was 1.47 × 10^5 and the kd is given as 2.27 × 10^−4.
On the same counts, the results for “R163A: single residue mutant of his-tagged sortilin luminal domain; SEQ ID NO 51 (RGGAIFRSSDFAKNF; not fully specified)” are 2.7 nM, 1.85 × 10^5 and 4.21 × 10^−4.
With “R166A: single residue mutant of his-tagged sortilin luminal domain; SEQ ID NO 53 (RGGRIFASSDFAKNF; not fully specified)”, in the experiment with GST-pro-dom-NGF (setting [2]), binding was characterised by a dissociation constant (Kd) of 4.38 nM, the ka was 6.48 × 10^4 and the kd is 2.85 × 10^−4.
Regarding “RIFR: 4-mer sortilin peptide, SEQ ID NO:25 residues 7-10 (listed as Homo Sapiens)”, in the experiment with pro-dom-BDNF, the “pro-dom-BDNF binding in SPOT analysis” value was “binds very strongly”. Besides, the “pro-dom-NGF binding in SPOT analysis” value with pro-dom-NGF is reported as “binds very strongly”.
With RIFRSSDF (listed as Homo Sapiens), in the experiment with pro-dom-BDNF, the “pro-dom-BDNF binding in SPOT analysis” value is “efficient binding”. In the experiment with pro-dom-NGF, the “pro-dom-NGF binding in SPOT analysis” value is recorded as “efficient binding”.
In the case of “Sortilin propeptide: propeptide of the Sortilin receptor (QDRLDAPPPPAAPLPRWSGPIGVSWGLRAAAAGGAFPRGGRWRR)”, the “inhibition of binding of 200 nM proNGF to immobilized Sortilin” value in experiment [1] (5 μM inhibitor prebound) is on record as approximately 65%.
“quatro: sortilin variant with quadruple substitutions R163A, F165A, R166A, F170A; SEQ ID NO 57 (RGGAIAASSDAAKNF; not fully specified)”: in the experiment with GST-pro-dom-NGF (50 nM GST-pro-dom-NGF, FIG. 22), the “binding of GST-pro-dom-NGF compared with sortilin wt” value is “severely affected; also recorded: strongly reduced affinity”. In the experiment with GST-pro-dom-NGF (setting [2]), the KD result is reported as “no binding”.

B1: RAP: receptor-associated protein, SEQ ID NO 12 (protein, listed as Homo Sapiens)
chain: MAPRRVRSFLRGLPALLLLLLFLGPWPAASHGGKYSREKNQPKPSPKRESGEEFRMEKLNQLWEKAQRLHLPPVRLAELHADLKIQERDELAWKKLKLDGLDEDGEKEARLIRNLNVILAKYGLDGKKDARQVTSNSLSGTQEDGLDDPRLEKLWHKAKTSGKFSGEELDKLWREFLHHKEKVHEYNVLLETLSRTEEIHENVISPSDLSDIKGSVLHSRHTELKEKLRSINQGLDRLRRVSHQGYSTEAEFEEPRVIDLWDLAQSANLTDKELEAFREELKHFEAKIEKHNHYQKQLEIAHEKLRHAESVGDGERVSRSREKHALLEGRTKELGYTVKKHLQDLSGRISRARHNEL
For the molecule B1, the “inhibition of binding of 200 nM proNGF to immobilized Sortilin” value in experiment [1] (10 μM inhibitor prebound) is listed as approximately 65%.
